Assay results as given in US6379928.

How the values were obtained:
Assay in all cases: cell-based or functional assay
[1] = target: chymosin polypeptide secreted by fungi transformed with pGRG3 (bovine preprochymosin under the glucoamylase promoter) (bovine) (UniProt P00794)
[2] = target: chymosin polypeptide secreted by fungi transformed with pGRG2 (A. niger glucoamylase signal peptide and propeptide fused to bovine prochymosin) (bovine) (UniProt P00794)
[3] = target: chymosin polypeptide secreted by fungi transformed with pGRG1 (A. niger glucoamylase signal peptide fused to bovine prochymosin) (bovine) (UniProt P00794)

pepstatin (peptide)
Chymosin Activity (µg/ml) of pGRG3 broth after preincubation with pepstatin (3 without pepstatin) [1]: 0.6 µg/ml | Chymosin Activity (µg/ml) of pGRG2 broth after preincubation with pepstatin (0.1 without pepstatin) [2]: 0 µg/ml | Chymosin Activity (µg/ml) of pGRG1 broth after preincubation with pepstatin (0.2 without pepstatin) [3]: 0.05 µg/ml
